Results: patent US20230312740A1 (VIRTUOSO BINCO, published 2023)
Residue numbers refer to the chain shown, from its start. Each block holds one binder with its values, some of them ahead of it.

How the values were obtained:
[1] = biological target: T1, CD38 on the surface of tumor cells (human, UniProt P28907 1-300); test: cell-based or functional assay
[2] = biological target: T1, CD38 on the surface of tumor cells; test: flow cytometry on Daudi cells
Method: (§1) Surface expression of CD38 and ICAM1 on the transformed cell lines was quantified by flow cytometry. Harvested cells were centrifuged at 2000 rpm for 5 min, resuspended in 10 - 15 ml ice-cold culture medium, and then counted. Then, 3×10⁶ cells were resuspended per ml of blocking buffer (PBS plus 2% FBS). 100 µl of the cell suspension was dispensed into each well of a 96-well plate and incubated at room temperature for 10-20 min. […] While incubating, purified antibodies were diluted to the desired dilution with blocking buffer. After a 10-20 minutes incubation, cells were centrifuged for 5 minutes at 2000 rpm in a refrigerated centrifuge. Blocking buffer was aspirated, and the cells were resuspended in 100 µl/well diluted antibodies and incubated for 1 hour at 4° C. The cells were then washed 3 times with PBS plus 2% FBS. […] The cells were then washed 3 times with 200 µl PBS by centrifuging at 2000 rpm for 5 min. After the last wash, the cells were resuspended in 300 µl cold PBS and analyzed on a FACSVerse™ (BD Biosciences) flow cytometer.
(§2) Binding of the chimeric anti-CD38 and anti-ICAM1 antibodies to proteins on the surface of tumor cells was determined by flow cytometry, as described above.

[3] = biological target: T2, Avi-human CD38 ECD (human, UniProt P28907 43-300); test: ELISA, plate coated with recombinant CD38
T2 construct: eluted as a monomer; also called hCD38; huCD38
Method: (§3) A 96-well plate was coated overnight at 4° C. with 1 µg/ml recombinant CD38 or ICAM1. After washing 3 times, the plate was blocked with 300 µl 1% BSA in PBST at 37° C. for 1 hour. Serially diluted antibodies were added and incubated at 37° C. for 1 hour. The plate was then washed 4 times with PBST and incubated with 1:5000 diluted 2nd antibody (Sigma, Cat# A0293) at 37° C. for 1 hour.

[4] = biological target: T2, Avi-human CD38 ECD; test: SPR (Biacore 8K), antibody captured, monomeric CD38 ECD injected
Method: (§4) Furthermore, binding kinetics measurements of the anti-CD38 and anti-ICAM1 antibodies were not affected by antibody valency in the SPR assays because antibodies were immobilized and challenged with monomeric antigens. SPR was performed on a Biacore 8K instrument (GE Healthcare). Antibodies were captured on Biacore Series S CM5 sensor chips coated with a monoclonal mouse anti-human IgG (Fc) antibody (GE Healthcare human antibody capture kit). Serial 3-fold dilutions of antigen (CD38 ECD or ICAM1 ECD) were injected at a flow rate of 30 µl/min. Each sample was analyzed with 1 min association and 10 min dissociation at room temperature (25° C.). After each injection, the chip was regenerated using 3 M MgCl₂. A 1:1 Langmuir model of simultaneous fitting of kₒₙ and koff was used for kinetics analysis.

[5] = biological target: T1, CD38 on the surface of tumor cells; test: cell-based or functional assay; remark: listed apart in the source
[6] = biological target: T2, Avi-human CD38 ECD; test: ELISA on human CD38 ECD; class A = EC50 0.02 nM - 0.1 nM (table legend)
[7] = biological target: T2, Avi-human CD38 ECD; test: ELISA on human CD38 ECD; class B = EC50 0.1 nM - 0.5 nM (table legend)
[8] = biological target: T3, ICAM1 on the surface of tumor cells (human, UniProt P05362 28-532); test: flow cytometry on DU145 cells
T3 construct: whole, on cells; also called ICAM1 on DU145 cells; ICAM1 on the surface of Daudi cells
Method: as §1, §2

[9] = biological target: T4, Human ICAM1 ECD-Avi (human, UniProt P05362 28-480); test: ELISA, plate coated with recombinant ICAM1
T4 construct: eluted as a monomer; also called hICAM1; recombinant ICAM1
Method: as §3

[10] = biological target: T4, Human ICAM1 ECD-Avi; test: SPR (Biacore 8K), antibody captured, monomeric ICAM1 ECD injected
Method: as §4

[11] = biological target: T3, ICAM1 on the surface of tumor cells; test: flow cytometry on Daudi cells; lower end of the range; Daudi cells
Method: as §1

[12] = biological target: T2, Avi-human CD38 ECD; test: SPR
[13] = biological target: T4, Human ICAM1 ECD-Avi; test: SPR

B1: anti-CD38 chimeric monoclonal antibody 18E4 (antibody, human IgG1, kappa, V domains shown)
VH: QSLEESGGDLVKPGASLTLTCTASGFSFNNYWICWIRQAPGKGLEWVACIYSPSGDIKYYANWAKGRFTVSKTSSTTVTLQMTSLTGADTATYFCARELSGSSYEGYFESWGPGTLVTVSS
VL: AQVLTQTPSSVSAAVGGTVTINCQCSQSVYGHNWLAWYQHKPGQPPKLLMYRASNLASGVPSRFKGSGSGSQFTLTIGEVQSDDAATYYCQGYYNGGSYAFGGGTEVVVRR
notes: Rabbit variable domains on human IgG1 / human kappa constant regions; also called chimeric 18E4; Chimeric antibody 18E4
CDC on Daudi cells, EC50 [1]: 1000 to 2000 pM
EC50 [2]: 300 to 1000 pM
EC50 [3]: ~50 pM
Kd [4]: 100 to 500 pM

B2: h18E4-19 (antibody, V domains shown)
VH: EVQLLESGGGLVQPGGSLRLSCAASGFSFNNYWIIWIRQAPGKGLEWVAAIYSPSGDIKYYADWAKGRFTVSKDNSKNTVYLQMNSLRAEDTAVYYCARELSGSSYEGYFESWGQGTLVTV
VL: DIQLTQSPSTLSASVGDRVTITCRSSQSVYGHNWLAWYQQKPGKAPKLLMYRASNLASGVPSRFSGSGSGTEFTLTISSVQPDDFATYYCQGYYSGGSYAFGGGTKVEIK
notes: also called hu18E4-19; humanized h18E4-19 antibody
ADCC on Daudi cells, EC50 [1]: 0.05 to 0.1 pM
ADCC EC50 on Daudi cells; antibody made in CHO [5]: 12.7 pM
ADCC EC50 on Daudi cells; antibody made in CHO FUT8 -/- (afucosylated) [5]: 0.4 pM
ADCC EC50 on HuNS1 cells; antibody made in CHO [5]: 80 pM
ADCC EC50 on HuNS1 cells; antibody made in CHO FUT8 -/- (afucosylated) [5]: 80 pM
ADCC EC50 on Raji cells; antibody made in CHO [5]: 14 pM
ADCC EC50 on Raji cells; antibody made in CHO FUT8 -/- (afucosylated) [5]: 8 pM
EC50 [6]: 20 to 100 pM

B4: h18E4-19 LC S93A (antibody, V domains shown)
VH: B2 VH
VL: B2 VL with S95A
notes: Alanine scan variant of h18E4-19; Kabat numbers, not linear positions of the entry
EC50 [7]: 100 to 500 pM

B6: anti-ICAM1 chimeric monoclonal antibody 11F2 (antibody, human IgG1, kappa, V domains shown)
VH: QSVEESGGGLVKPGGTLTLTCTVSGFSLSSHAMGWVRQAPGKGLEYIGIIGSSDRTYYASWAKGRFTISKTSTTVDLKITSPTTEDTATYFCVRDPYDSYDDGYRLWGPGTLVTVSS
VL: AYDMTQTPASVEVAVGGTVTIKCQASQSIYRYLSWYQKKPGQRPKFLIYDASKLASGVPSRFEGSGSGTEFTLTISGAQSDDAATYYCQQAYSSGSIDNAFGGGTEVVVKR
notes: Rabbit variable domains on human IgG1 / human kappa constant regions; also called chimeric 11F2
EC50 [8]: 1000 to 1500 pM
EC50 [9]: ~50 pM
Kd [10]: 100 to 500 pM

B10: h18E4-13 (antibody, V domains shown)
VH: EVQLLESGGGLVQPGGSLRLSCAASGFSFNNYWICWIRQAPGKGLEWVACIYSPSGDIKYYADWAKGRFTVSKDNSKNTVYLQMNSLRAEDTAVYYCARELSGSSYEGYFESWGQGTLVTVSS
VL: B2 VL
binding result [12]: binds

Next, values leading:

EC50 [7]: 100 to 500 pM
B3: h18E4-19 LC G90A (antibody, V domains shown)
VH: B2 VH
VL: B2 VL with G92A
notes: as for B4

EC50 [7]: 100 to 500 pM
B5: h18E4-19 LC Y96A (antibody, V domains shown)
VH: B2 VH
VL: B2 VL with Y99A
notes: as for B4

EC50 [8]: 1000 to 1500 pM
EC50 [9]: ~50 pM
Kd [10]: 100 to 500 pM
EC50 [11]: 40 to 80 pM
B7: anti-ICAM1 chimeric monoclonal antibody 8B12 (antibody, human IgG1, kappa, V domains shown)
VH: B6 VH with S30T, Y100F
VL: B6 VL with R31S, K38Q, L54V, E63K, G77A, A78V, G95S, S96N, I97V, V108M
notes: Rabbit variable domains on human IgG1 / human kappa constant regions; also called chimeric 8B12

Kd [12]: 2000 to 5000 pM
Kd [13]: 100 to 150 pM
B8: αCD38(scFv) x αICAM1 (bispecific antibody, human IgG1, kappa)
heavy: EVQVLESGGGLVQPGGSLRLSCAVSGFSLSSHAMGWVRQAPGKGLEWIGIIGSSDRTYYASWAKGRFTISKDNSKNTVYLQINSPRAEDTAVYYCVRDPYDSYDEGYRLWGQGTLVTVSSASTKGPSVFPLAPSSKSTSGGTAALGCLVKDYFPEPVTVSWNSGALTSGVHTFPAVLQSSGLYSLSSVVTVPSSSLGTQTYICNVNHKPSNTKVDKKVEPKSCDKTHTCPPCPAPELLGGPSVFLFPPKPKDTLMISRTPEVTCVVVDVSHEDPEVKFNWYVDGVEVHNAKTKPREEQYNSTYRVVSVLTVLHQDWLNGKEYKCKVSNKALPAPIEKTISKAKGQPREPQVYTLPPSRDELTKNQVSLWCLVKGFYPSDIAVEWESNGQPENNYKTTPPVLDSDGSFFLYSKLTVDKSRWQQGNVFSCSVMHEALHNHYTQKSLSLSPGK
light: DIQMTQSPSTLSASVGDRVTITCQASQSIYRYLSWYQQKPGKAPKFLIYDASKLASGVPSRFSGSGSGTEFTLTISSVQPDDFATYYCQQAYSSGSIDNAFGGGTKVEIKRTVAAPSVFIFPPSDEQLKSGTASVVCLLNNFYPREAKVQWKVDNALQSGNSQESVTEQDSKDSTYSLSSTLTLSKADYEKHKVYACEVTHQGLSSPVTKSFNRGEC
scFv: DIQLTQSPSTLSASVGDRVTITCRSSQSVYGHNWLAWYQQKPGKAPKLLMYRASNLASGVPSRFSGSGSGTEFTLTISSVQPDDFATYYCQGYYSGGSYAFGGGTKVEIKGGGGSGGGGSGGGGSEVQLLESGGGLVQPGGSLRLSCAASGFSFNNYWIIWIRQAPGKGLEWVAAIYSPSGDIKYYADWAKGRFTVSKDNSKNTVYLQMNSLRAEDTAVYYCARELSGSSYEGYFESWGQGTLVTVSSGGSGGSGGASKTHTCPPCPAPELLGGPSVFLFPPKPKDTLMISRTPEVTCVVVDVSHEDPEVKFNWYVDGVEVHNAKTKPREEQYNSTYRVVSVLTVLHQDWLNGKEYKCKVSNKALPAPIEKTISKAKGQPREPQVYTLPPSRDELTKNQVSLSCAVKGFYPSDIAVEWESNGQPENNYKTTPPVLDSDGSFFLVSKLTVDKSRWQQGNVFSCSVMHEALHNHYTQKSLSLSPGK
notes: h11F2-6 Fab arm on Fc-knob, h18E4-19 scFv on Fc-hole; IgG1 Fc; also called three chain bispecific antibody; scFv format bispecific antibody

Kd [12]: 2000 to 5000 pM
Kd [13]: 100 to 150 pM
B9: αCD38(TCR) x αICAM1 (bispecific antibody, human IgG1, kappa)
heavy 1: EVQLLESGGGLVQPGGSLRLSCAASGFSFNNYWIIWIRQAPGKGLEWVAAIYSPSGDIKYYADWAKGRFTVSKDNSKNTVYLQMNSLRAEDTAVYYCARELSGSSYEGYFESWGQGTLVTVLEDLKNVFPPEVAVFEPSEAEISHTQKATLVCLATGFYPDHVELSWWVNGKEVHSGVCTDPQPLKEQPALQDSRYALSSRLRVSATFWQNPRNHFRCQVQFYGLSENDEWTQDRAKPVTQIVSAEAWGRASDKTHTCPPCPAPELLGGPSVFLFPPKPKDTLMISRTPEVTCVVVDVSHEDPEVKFNWYVDGVEVHNAKTKPREEQYNSTYRVVSVLTVLHQDWLNGKEYKCKVSNKALPAPIEKTISKAKGQPREPQVCTLPPSREEMTKNQVSLSCAVKGFYPSDIAVEWESNGQPENNYKTTPPVLDSDGSFFLVSKLTVDKSRWQQGNVFSCSVMHEALHNHYTQKSLSLSPG
light 1: DIQLTQSPSTLSASVGDRVTITCRSSQSVYGHNWLAWYQQKPGKAPKLLMYRASNLASGVPSRFSGSGSGTEFTLTISSVQPDDFATYYCQGYYSGGSYAFGGGTKVEIKPDIQNPDPAVYQLRDSKSSDKSVCLFTDFDSQTQVSQSKDSDVYITDKCVLDMRSMDFKSNSAVAWSQKSDFACANAFQNSIIPEDTFFPSPESS
heavy 2: not shown
light 2: B8 light
notes: also called TCR format bispecific antibody; TCR-chimera bispecific antibody
